Test results: patent publication US20220009989A1

Legend:
Biotinylated PCSK9 = Biotinylated PCSK9 (UniProt Q8NBP7); test: PCSK9-LDL-R competitive ELISA (biotinylated PCSK9, coated rhLDL-R), Ki from IC50
[1] = biological target: solubilised human IR-A (human) (UniProt P06213); test: SPA competition vs [125I-A14Y]-human insulin, solubilised hIR-A, 0% HSA, relative to human insulin
[2] = biological target: PCSK9 (10 ug/mL; in-house production) (UniProt Q8NBP7); test: cell-based or functional assay
[3] = biological target: solubilised human IR-A (human) (UniProt P06213); test: SPA competition vs [125I-A14Y]-human insulin, solubilised hIR-A, 1.5% HSA, relative to human insulin

Sequence of solubilised human IR-A (human) (P06213 other isoform, or with tags, fused parts or gaps limits assumed): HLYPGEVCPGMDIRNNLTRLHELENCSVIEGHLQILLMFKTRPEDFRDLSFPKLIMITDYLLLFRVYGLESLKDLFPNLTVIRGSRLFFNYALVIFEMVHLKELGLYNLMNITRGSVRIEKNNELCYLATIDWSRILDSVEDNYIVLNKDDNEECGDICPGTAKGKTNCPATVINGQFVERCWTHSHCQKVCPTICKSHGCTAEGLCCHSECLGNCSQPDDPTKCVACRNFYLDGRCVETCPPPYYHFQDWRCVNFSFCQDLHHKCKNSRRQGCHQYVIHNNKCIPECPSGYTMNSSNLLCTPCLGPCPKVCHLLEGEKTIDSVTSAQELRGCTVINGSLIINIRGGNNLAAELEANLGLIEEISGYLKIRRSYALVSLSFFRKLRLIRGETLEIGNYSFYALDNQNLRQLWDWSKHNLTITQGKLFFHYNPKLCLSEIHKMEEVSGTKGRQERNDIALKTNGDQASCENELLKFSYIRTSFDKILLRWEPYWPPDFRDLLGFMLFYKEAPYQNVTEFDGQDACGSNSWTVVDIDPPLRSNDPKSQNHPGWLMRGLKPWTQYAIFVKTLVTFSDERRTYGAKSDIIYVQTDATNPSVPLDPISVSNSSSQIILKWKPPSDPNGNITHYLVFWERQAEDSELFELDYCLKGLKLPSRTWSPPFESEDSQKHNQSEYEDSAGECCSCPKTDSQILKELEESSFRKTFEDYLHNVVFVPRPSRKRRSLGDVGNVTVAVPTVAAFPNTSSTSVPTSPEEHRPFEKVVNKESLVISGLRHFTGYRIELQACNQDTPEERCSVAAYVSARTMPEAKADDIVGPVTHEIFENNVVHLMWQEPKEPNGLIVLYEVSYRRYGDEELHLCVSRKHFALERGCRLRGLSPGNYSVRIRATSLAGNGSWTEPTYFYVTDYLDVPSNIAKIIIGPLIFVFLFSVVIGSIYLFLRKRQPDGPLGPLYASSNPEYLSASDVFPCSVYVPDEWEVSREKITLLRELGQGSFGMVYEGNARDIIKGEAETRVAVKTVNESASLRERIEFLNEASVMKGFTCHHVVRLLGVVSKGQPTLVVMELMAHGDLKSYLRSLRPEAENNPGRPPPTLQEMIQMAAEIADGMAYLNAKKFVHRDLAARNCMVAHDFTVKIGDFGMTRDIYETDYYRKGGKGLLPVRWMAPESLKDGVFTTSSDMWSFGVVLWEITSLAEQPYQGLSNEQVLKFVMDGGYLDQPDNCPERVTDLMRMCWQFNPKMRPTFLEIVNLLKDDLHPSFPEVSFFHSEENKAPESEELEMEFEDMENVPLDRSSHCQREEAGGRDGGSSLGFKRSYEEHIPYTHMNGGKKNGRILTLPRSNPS

Substance	Ki (Biotinylated PCSK9) [nM]	hIR-A binding affinity (% rel to HI) [1]	LDL uptake EC50 (nM) in HepG2 cells [2] [nM]	hIR-A binding affinity (% rel to HI) [3]
EGF(A)(301L, 309R, 312E, 321E)-[GAQP]6-Insulin(A14E, B29K(octadecanedioyl-gGlu-OEG), desB30)	2.07	–	–	–
EGF(A)(301L, 309R, 312E, 321E)-[GAQP]19-Insulin(A14E, B29K(eicosanedioyl-gGlu-2×OEG), desB30)	–	2.89 % rel to HI	126	0.14 % rel to HI
EGF(A)(301L, 309R, 312E, 321E)-[GAQP]19-Insulin(A14E, B29K(octadecanedioyl-gGlu-2×OEG), desB30)	2.12	2.99 % rel to HI	123	0.14 % rel to HI
EGF(A)(301L, 309R, 312E, 321E, 328K(hexadecanedioyl-gGlu-2×OEG), 330K(hexadecanedioyl-gGlu-2×OEG)) (peptide; modification not given)	–	–	152	–

More lines, in order of falling Ki (Biotinylated PCSK9), values ahead:

Ki (Biotinylated PCSK9) [nM]	hIR-A binding affinity (% rel to HI) [1]	LDL uptake EC50 (nM) in HepG2 cells [2] [nM]	hIR-A binding affinity (% rel to HI) [3]	Substance
1.92	–	–	–	EGF(A)(301L, 309R, 312E, 321E)-[GAQP]6-Insulin(A14E, B29K(octadecanedioyl-gGlu-2×OEG), desB30)
1.9	–	–	–	EGF(A)(301L, 309R, 312E, 321E, 328K(hexadecanedioyl-gGlu-2×OEG), 330K(hexadecanedioyl-gGlu-2×OEG)) (peptide; modification not given; biotinylated (sites not stated))
1.86	4.15 % rel to HI	–	0.29 % rel to HI	EGF(A)(301L, 309R, 312E, 321E)-[GAQP]19-Insulin(B3E, B29K(eicosanedioyl-gGlu-2×OEG), desB30)
1.75	–	–	–	EGF(A)(301L, 309R, 312E, 321E)-[GAQP]6-Insulin(A14E, B29K(eicosanedioyl-gGlu-2×OEG), desB30
